This note sets out measurements from paper PMC12964555, “Fecal Detection of Calprotectin Subunits Links Inflammatory Bowel Disease Activity With Chronicity of Intestinal Inflammation” (Gastroenterology, 2025).

Common to all, as to experiment: SEC; human recombinant S100A8, S100A9 or their 1:1 mix (CP) run as reference proteins; sizes read from the elution
(Size exclusion chromatography separates by hydrodynamic size, large species first.)

Data set [1] addresses T1, human recombinant S100A9 (human, UniProt P06702 1-114).
T1 construct: S100A9, human, recombinant; Alone it runs as a homodimer by SEC; In the 1:1 mix with S100A8 it forms the calprotectin heterotetramer; also called S100A9 homodimers; source: human recombinant, generated by the authors, purity confirmed
T1 sequence (looked up): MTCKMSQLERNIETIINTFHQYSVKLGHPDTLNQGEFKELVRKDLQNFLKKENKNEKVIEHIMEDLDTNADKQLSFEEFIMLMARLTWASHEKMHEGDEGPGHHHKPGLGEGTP
As to conditions: both partners purified.

Data set [2] concerns the molecule itself.
The target of data set [3] is T2, human recombinant S100A9 (human), P06702.
T2 chain: T1 sequence (looked up)

B1: human recombinant S100A8 (natural protein, UniProt P05109 1-93, looked up)
chain: MLTELEKALNSIIDVYHKYSLIKGNFHAVYRDDLKKLLETECPQYIRKKGADVWFKELDINTDGAVNFQEFLILVIKMGVAAHKKSHEESHKE
notes: S100A8, human, recombinant; Alone it runs as a homodimer by SEC; In the 1:1 mix with S100A9 it forms the calprotectin heterotetramer; also called S100A8 homodimers; S100A8/S100A8 homodimers; source: human recombinant, generated by the authors, purity confirmed
Take B1: in data set [1], the binding result is “binds”. Further, in data set [2], the “stoichiometry N” value stood at 2.

B2: human recombinant S100A9, P06702 1-114 (natural protein)
chain: T1 sequence (looked up)
For the molecule B2, the stoichiometry N in data set [3] was found to be 2.

Broadly, the stoichiometry N is the number of molecules, sites or subunits per partner or assembly.
